From US5264366A, “Protease deficient bacillus” (Genencor, Inc., priority 1991, dated 1993)
*1 amine or outer side, *2 acyl side, *3 side chain or, on linkers, in order; H or OH if unused. Where a SMILES comes first, the peptide text is derived from it. The star is where a group is joined. pNA = O=[N+]([O-])c1ccc(N*)cc1; Suc = O=C(CCC(=O)[*:2])[*:1]

T1: B. amyloliquefaciens subtilisin, wild type (gly-166) (Bacillus amyloliquefaciens, UniProt P00782)
T1 construct: codons for the mature subtilisin corresponding to that secreted by the B. amyloliquefaciens; made in house; host or cells: Bacillus subtilis BG2036 (protease deficient), plasmid pS4-5
T1 sequence (P00782 108-382): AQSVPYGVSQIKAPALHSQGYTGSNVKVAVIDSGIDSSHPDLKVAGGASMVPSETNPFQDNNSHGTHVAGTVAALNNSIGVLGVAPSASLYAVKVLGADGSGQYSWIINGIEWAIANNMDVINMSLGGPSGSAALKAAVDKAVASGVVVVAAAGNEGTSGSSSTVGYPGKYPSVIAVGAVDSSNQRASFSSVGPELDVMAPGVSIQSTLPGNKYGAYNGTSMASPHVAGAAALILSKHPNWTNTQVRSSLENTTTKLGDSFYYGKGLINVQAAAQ


Assays:
Assay in all cases: Kinetic parameters from progress curves, p-nitroanilide substrates
[1] = target: T1, B. amyloliquefaciens subtilisin, wild type (gly-166); format: biochemical; settings: 25° C., 0.1M tris buffer, pH 8.6
Protocol: (§1) B. subtilis strain BG2036 obtained by the method of Example 11 was transformed by the plasmids of Examples 14, 15 or 20 and by pS4-5 as a control. Transformants were plated or cultured in shaker flasks for 16 to 48 h at 37° C. in LB media plus 12.5 μg/ml chloramphenicol. Mutant enzymatically active subtilisin was recovered by dialyzing cell broth against 0.01M sodium phosphate buffer, pH 6.2. The dialyzed broth was then titrated to pH 6.2 with 1N HCl and loaded on a 2.5×2 cm column of CM cellulose (CM-52 Whatman). After washing with 0.01M sodium phosphate, pH 6.2, the subtilisins (except mutants at position +222) were eluted with the same buffer made 0.08N in NaCl. The mutant subtilisins at position +222 were each eluted with 0.1M sodium phosphate, pH 7.0. The purified mutant and wild type enzymes were then used in studies of oxidation stability, Km, Kcat, Kcat/Km ratio, pH optimum, and changes in substrate specificity.
(§2) Various mutants for glycine+166 were screened for modified Kcat, Km and Kcat/Km ratios. Kinetic parameters were obtained by analysis of the progress curves of the reactions. The rate of reaction was measured as a function of substrate concentration. Data was analyzed by fitting to the Michaelis-Menton equation using the non-linear regression algorithm of Marquardt (Marquardt, D. W. 1963, "J. Soc. Ind. Appl. Math." 11, 431-41).

[2] = substrate: C[C@H](NC(=O)CCC(=O)O)C(=O)N[C@@H](C)C(=O)N1CCC[C@H]1C(=O)N[C@@H](Cc1ccccc1)C(=O)Nc1ccc([N+](=O)[O-])cc1; format: biochemical, B. amyloliquefaciens; settings: other: 25° C., 0.1M tris buffer, pH 8.6
Protocol: (§3) The procedure of Examples 13-14 was followed in substantial detail, except that the mutagenesis primer differed (the 37 mer shown in FIG. 13 was used), the two restriction enzymes were SacI and XmaIII rather than PstI and KpnI and the resulting constructions differed, as shown in FIG. 13.
as §1, §2

[3] = substrate: CC(C)[C@H](NC(=O)c1ccccc1)C(=O)NCC(=O)N[C@@H](CCCNC(=N)N)C(=O)Nc1ccc([N+](=O)[O-])cc1; format: biochemical, B. amyloliquefaciens; settings: other: 25° C., 0.1M tris buffer, pH 8.6
Protocol: as §3, §1, §2

[4] = substrate: CC(C)[C@H](NC(=O)c1ccccc1)C(=O)NCC(=O)N[C@@H](CCCNC(=N)N)C(=O)Nc1ccc([N+](=O)[O-])cc1; format: biochemical; settings: other: 25° C., 0.1M tris buffer, pH 8.6
Protocol: as §1, §2

Molecule | Kcat [1] | Km [2] | kcat [2] | Km [3] | kcat [3] | Km [4] | kcat [4]
C[C@H](NC(=O)CCC(=O)O)C(=O)N[C@@H](C)C(=O)N1CCC[C@H]1C(=O)N[C@@H](Cc1ccccc1)C(=O)Nc1ccc([N+](=O)[O-])cc1 [sAAPFpN, succinyl-L-Alanyl-L-Alanyl-L-Prolyl-L-Phenylalanyl-p-nitroanilide] (Suc-AAPF-pNA) | 37 s⁻¹ | – | – | – | – | – | –
B. amyloliquefaciens subtilisin variant ala + 166 (A166, glycine+166 substituted) (Bacillus amyloliquefaciens; G273A) (protein, codons for the mature subtilisin corresponding to that secreted by the B. amyloliquefaciens; made in house; host or cells: Bacillus subtilis BG2036 (protease deficient)) AQSVPYGVSQIKAPALHSQGYTGSNVKVAVIDSGIDSSHPDLKVAGGASMVPSETNPFQDNNSHGTHVAGTVAALNNSIGVLGVAPSASLYAVKVLGADGSGQYSWIINGIEWAIANNMDVINMSLGGPSGSAALKAAVDKAVASGVVVVAAAGNEGTSGSSSTVAYPGKYPSVIAVGAVDSSNQRASFSSVGPELDVMAPGVSIQSTLPGNKYGAYNGTSMASPHVAGAAALILSKHPNWTNTQVRSSLENTTTKLGDSFYYGKGLINVQAAAQ | – | 27 µM | 19 s⁻¹ | – | – | – | –
B. amyloliquefaciens subtilisin variant phe + 166 (glycine+166 substituted) (Bacillus amyloliquefaciens; G273F) (protein, codons for the mature subtilisin corresponding to that secreted by the B. amyloliquefaciens; made in house; host or cells: Bacillus subtilis BG2036 (protease deficient)) AQSVPYGVSQIKAPALHSQGYTGSNVKVAVIDSGIDSSHPDLKVAGGASMVPSETNPFQDNNSHGTHVAGTVAALNNSIGVLGVAPSASLYAVKVLGADGSGQYSWIINGIEWAIANNMDVINMSLGGPSGSAALKAAVDKAVASGVVVVAAAGNEGTSGSSSTVFYPGKYPSVIAVGAVDSSNQRASFSSVGPELDVMAPGVSIQSTLPGNKYGAYNGTSMASPHVAGAAALILSKHPNWTNTQVRSSLENTTTKLGDSFYYGKGLINVQAAAQ | – | 14 µM | 3 s⁻¹ | – | – | – | –
B. amyloliquefaciens subtilisin variant glu + 166 (E166, glycine+166 substituted) (Bacillus amyloliquefaciens; G273E) (protein, codons for the mature subtilisin corresponding to that secreted by the B. amyloliquefaciens; made in house; host or cells: Bacillus subtilis BG2036 (protease deficient)) AQSVPYGVSQIKAPALHSQGYTGSNVKVAVIDSGIDSSHPDLKVAGGASMVPSETNPFQDNNSHGTHVAGTVAALNNSIGVLGVAPSASLYAVKVLGADGSGQYSWIINGIEWAIANNMDVINMSLGGPSGSAALKAAVDKAVASGVVVVAAAGNEGTSGSSSTVEYPGKYPSVIAVGAVDSSNQRASFSSVGPELDVMAPGVSIQSTLPGNKYGAYNGTSMASPHVAGAAALILSKHPNWTNTQVRSSLENTTTKLGDSFYYGKGLINVQAAAQ | – | 340 µM | 11 s⁻¹ | 27 µM | 2 s⁻¹ | – | –
B. amyloliquefaciens subtilisin variant asn + 166 (glycine+166 substituted) (Bacillus amyloliquefaciens; G273N) (protein, codons for the mature subtilisin corresponding to that secreted by the B. amyloliquefaciens; made in house; host or cells: Bacillus subtilis BG2036 (protease deficient)) AQSVPYGVSQIKAPALHSQGYTGSNVKVAVIDSGIDSSHPDLKVAGGASMVPSETNPFQDNNSHGTHVAGTVAALNNSIGVLGVAPSASLYAVKVLGADGSGQYSWIINGIEWAIANNMDVINMSLGGPSGSAALKAAVDKAVASGVVVVAAAGNEGTSGSSSTVNYPGKYPSVIAVGAVDSSNQRASFSSVGPELDVMAPGVSIQSTLPGNKYGAYNGTSMASPHVAGAAALILSKHPNWTNTQVRSSLENTTTKLGDSFYYGKGLINVQAAAQ | – | 140 µM | 26 s⁻¹ | 120 µM | 1 s⁻¹ | – | –
B. amyloliquefaciens subtilisin variant arg + 166 (glycine+166 substituted) (Bacillus amyloliquefaciens; G273R) (protein, codons for the mature subtilisin corresponding to that secreted by the B. amyloliquefaciens; made in house; host or cells: Bacillus subtilis BG2036 (protease deficient)) AQSVPYGVSQIKAPALHSQGYTGSNVKVAVIDSGIDSSHPDLKVAGGASMVPSETNPFQDNNSHGTHVAGTVAALNNSIGVLGVAPSASLYAVKVLGADGSGQYSWIINGIEWAIANNMDVINMSLGGPSGSAALKAAVDKAVASGVVVVAAAGNEGTSGSSSTVRYPGKYPSVIAVGAVDSSNQRASFSSVGPELDVMAPGVSIQSTLPGNKYGAYNGTSMASPHVAGAAALILSKHPNWTNTQVRSSLENTTTKLGDSFYYGKGLINVQAAAQ | – | 62 µM | 19 s⁻¹ | – | – | – | –
B. amyloliquefaciens subtilisin variant asp + 166 (D166, glycine+166 substituted) (Bacillus amyloliquefaciens; G273D) (protein, codons for the mature subtilisin corresponding to that secreted by the B. amyloliquefaciens; made in house; host or cells: Bacillus subtilis BG2036 (protease deficient)) AQSVPYGVSQIKAPALHSQGYTGSNVKVAVIDSGIDSSHPDLKVAGGASMVPSETNPFQDNNSHGTHVAGTVAALNNSIGVLGVAPSASLYAVKVLGADGSGQYSWIINGIEWAIANNMDVINMSLGGPSGSAALKAAVDKAVASGVVVVAAAGNEGTSGSSSTVDYPGKYPSVIAVGAVDSSNQRASFSSVGPELDVMAPGVSIQSTLPGNKYGAYNGTSMASPHVAGAAALILSKHPNWTNTQVRSSLENTTTKLGDSFYYGKGLINVQAAAQ | – | 580 µM | 3 s⁻¹ | 41 µM | 2 s⁻¹ | – | –
B. amyloliquefaciens subtilisin, wild type (gly-166) (Bacillus amyloliquefaciens) (protein, codons for the mature subtilisin corresponding to that secreted by the B. amyloliquefaciens; made in house; host or cells: Bacillus subtilis BG2036 (protease deficient), plasmid pS4-5) AQSVPYGVSQIKAPALHSQGYTGSNVKVAVIDSGIDSSHPDLKVAGGASMVPSETNPFQDNNSHGTHVAGTVAALNNSIGVLGVAPSASLYAVKVLGADGSGQYSWIINGIEWAIANNMDVINMSLGGPSGSAALKAAVDKAVASGVVVVAAAGNEGTSGSSSTVGYPGKYPSVIAVGAVDSSNQRASFSSVGPELDVMAPGVSIQSTLPGNKYGAYNGTSMASPHVAGAAALILSKHPNWTNTQVRSSLENTTTKLGDSFYYGKGLINVQAAAQ | – | – | – | – | – | 1100 µM | 2 s⁻¹
B. amyloliquefaciens subtilisin variant hys + 166 (glycine+166 substituted) (Bacillus amyloliquefaciens; G273H) (protein, codons for the mature subtilisin corresponding to that secreted by the B. amyloliquefaciens; made in house; host or cells: Bacillus subtilis BG2036 (protease deficient)) AQSVPYGVSQIKAPALHSQGYTGSNVKVAVIDSGIDSSHPDLKVAGGASMVPSETNPFQDNNSHGTHVAGTVAALNNSIGVLGVAPSASLYAVKVLGADGSGQYSWIINGIEWAIANNMDVINMSLGGPSGSAALKAAVDKAVASGVVVVAAAGNEGTSGSSSTVHYPGKYPSVIAVGAVDSSNQRASFSSVGPELDVMAPGVSIQSTLPGNKYGAYNGTSMASPHVAGAAALILSKHPNWTNTQVRSSLENTTTKLGDSFYYGKGLINVQAAAQ | – | 110 µM | 15 s⁻¹ | – | – | – | –
B. amyloliquefaciens subtilisin variant lys + 166 (glycine+166 substituted) (Bacillus amyloliquefaciens; G273K) (protein, codons for the mature subtilisin corresponding to that secreted by the B. amyloliquefaciens; made in house; host or cells: Bacillus subtilis BG2036 (protease deficient)) AQSVPYGVSQIKAPALHSQGYTGSNVKVAVIDSGIDSSHPDLKVAGGASMVPSETNPFQDNNSHGTHVAGTVAALNNSIGVLGVAPSASLYAVKVLGADGSGQYSWIINGIEWAIANNMDVINMSLGGPSGSAALKAAVDKAVASGVVVVAAAGNEGTSGSSSTVKYPGKYPSVIAVGAVDSSNQRASFSSVGPELDVMAPGVSIQSTLPGNKYGAYNGTSMASPHVAGAAALILSKHPNWTNTQVRSSLENTTTKLGDSFYYGKGLINVQAAAQ | – | 34 µM | 15 s⁻¹ | – | – | – | –
